Assay results as given in the nanobody polyreactivity screen of Harvey et al. (2022).

Assay: yeast display, Sf9 membrane polyspecificity reagent, FACS + sequencing; frameworks hold sequencing errors
How it was run: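 Nanobodies came from a synthetic yeast display library in Saccharomyces cerevisiae BJ5465, induced with galactose for 36–48 hours and stained for 1 hour at 4 °C with 10% biotinylated, detergent-solubilized Sf9 membrane reagent. Cells were enriched on streptavidin microbeads and then FACS-sorted, with low and high (top ~1%) gates set on anti-HA fluorescence for expression and streptavidin fluorescence for reagent binding. Each polyreactivity label reflects the gate a clone came from. Genes were amplified by colony PCR, sequenced by MiSeq 2 × 250 and filtered by CDR length.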

Row | Sequence | polyreactivity (PSR sort gate)
1 | QVQLVESCGGLVQAGGSLRLSCAASGSIFPYYTMGWYRQAPWKERELVAAISGSGGSTYYADSVKGRFTISRDNAKNTVYLQMNSLKAEYTAVYYCAAYRRTWFDYWGQGTQVTVSS | high polyreactivity
2 | QVQLVESCGGLVQAGGSLRLSCAASGSIFVGNAMGWYRQAPGKERELVAAIDASGGNTYYADSVKGRFTISRDNAKNTVYLQMNSLKPEDTAVYYCNKYGYWWWGTRESDYWGQGTQVTVSS | high polyreactivity
3 | QVQLVESCGGLVQAGGSLRLSCAASGSTFAGYVMGWYRQAPGKERQFVAAISTSGGRTYYADSVKGRFTISRDNAKNTVYLQMNSLKPEDTAVYYCAARSVTYGGLGLYGYWGQGTQVTVSS | high polyreactivity
4 | QVQLVESCGGLVQAGGSLRLSCAASGSTFASYAMGWYRQAPGKEREFVAAISRSGGSTYYADSVKGRFTISRDNAKNTVYLQMNSLKPEDTAVYYCAARSPSADEYYYWGQGTQVTVSS | low polyreactivity
5 | QVQLVESCGGLVQAGGSLRLSCAASGSTFEEYAMGWYRQAPGKERELVASIRWSGGRTYYADSVKGRFTISRDNAKNTVYLQMNRLKPEDTAVYYCNKDYYITLHESEGKGGEMDYWGQGTQVTVSS | low polyreactivity
6 | QVQLVESCGGLVQAGGSLRLSCAASGSTFINYAMGWYRQAPGKERELVAAYAYSVKGRFTISRDNAKITVYLQMKSLKPEDTAVYYCNAVTGDWGQGTQVTVSS | low polyreactivity
7 | QVQLVESCGGLVQAGGSLRLSCSASGSTFVINAMGWYRQAPGKERELVAAISSGDNTNYADSVKGRFTISRDNAKNTVYLQMNSLKPEETAVYYCAALPAYLDYGARRSMDYWGQGTQVTVSS | low polyreactivity
8 | QVQLVESCGRLVQAGGSLRISCAASGYTFSYYAMGWYRQAHGKERELVAAINYSGGRTYYADSVKGRFTISRDNAKNNVYLQMNSLKPEDTAVYYCSAYTRNGEYDYWGQGTQVTVSS | high polyreactivity
9 | QVQLVESCRGLVQAGGSLRLICAASGLTFRYYSMGWYRQAPGKERELVASISWCGASTYYADSVKGRFTISRDNAKNTVYLQMISLKPEDTAVYYCNAGYSGSYDYWGQGTQVTVSS | high polyreactivity
10 | QVQLVESDGGLVQAGGSLRLSCAASGIIFGYYVMGWYRPAPGKERELVASITSGGSTNYADSVKGRFTISRDNAKNTVYFQMNSLKPEDTAVYYCAAEERTDTIPGWRYPHDYWGQGTQVTVSS | low polyreactivity
11 | QVQLVESGACLVQAGGRLRLSCAASGRICGLNAMVWYRQAPGKERELVASITYSGGSTYYADSVKGRFTISRDNAKNTVYLQMNSLKPEYTADYYCAADSWYYWYSTYDYWGQGTQVTVSS | high polyreactivity
12 | QVQLVESGACLVQAGGSLRLSCAASGGIFYYYAMGWYRQAPGKERELVAVISPGGGRTYYADSVKGRFTISRDIAKNTVYLQKNSLKPEDTAVYYCARDSPGDGGREVARGSYNYWGQGTQVTVSS | high polyreactivity
13 | QVQLVESGACLVQAGGSLRLSCAASGITLVNYAMGWYRQAPGKERELVAAISASGGSTYYADSVKGRFTISRDNAKNNVYLQMNSLKPEDTAVYYCAAEEEEFIYDYWGQGTQVTVSS | high polyreactivity
14 | QVQLVESGAGIVQAGGSLRLSCAASGLTFTYYAMGWYRQAPGKERELVAAISRSGTGTYYADSVKGRFTISRDNAKNTVYLQMNSLTAEDTAVYYCNAVVRTYGYDYWGQGTQVTVSS | high polyreactivity
15 | QVQLVESGAGIVQAGGSLRLSCAASGRIFSDYTMGWYRQAPGKERELVAAIDWSGGNTYYADSVKGRFTISRDNAKNTVYLQMNSLKPEDTAVYYCNADWTYPSAEREYWGQGTQVTVSS | low polyreactivity
16 | QVQLVESGAGLGQAGGSLRLSCAASGSNDIYAMGWNRQEPGKEREFVAAISYSSGSTYYADSVKGRFTISRDNAKNTVFLQMNSLIPVDTAVYYCAAVWQAGVYRYYYWGQGTQVTVSS | high polyreactivity
17 | QVQLVESGAGLVHAGGSLRLSCAASGRIFGINAMGWYRQAPGKERELVAAINWSGGSTYYADSVKGRFTISRDNAKNTVYLQMNSVKPEDTAVYYCAAQKYKRVGYWGQGTQVTVSS | high polyreactivity
18 | QVQLVESGAGLVHAGGSLRLSCAASGRTFSSNAMGGYRQAPGKERELVAGITWGGGSTYYADSVKGRFTISRDNAKNTVYLQMYSLKPEDTAVYYCAKSAGKRGYQVDYWVQGTQVTVSS | high polyreactivity
19 | QVQLVESGAGLVKAGGSLRLSCAASGIIFGNYAMGLYRQAPGKEREFVAAISGSGDSTYYADSVKGRFTISRDNAKNTVYLQMNSLKPEVTAVYYCAADWTLVYYHEDYWGQGTQVTVSS | high polyreactivity
20 | QVQLVESGAGLVQAAGSLRLSCAASVSTFYTYAMGRYRQAPGKERELVADIRWRGGSTNYADSVKGRFTISRDNAKNTVYLQMNSLTSEDTAVYYCALRYYYYGASYYYWGHGTQVTVSS | high polyreactivity
21 | QVQLVESGAGLVQAGASLRLSCAASGRIFPWNAMGWSRQEPGKERELVAAISFSAGRTYYADSVKGRFTISRDNAKNTVYLQMNSLKPEDTAVYYCNARIGSRWVWTGIICYEYWGKGTQVTVSS | low polyreactivity
22 | QVQLVESGAGLVQAGGSLLLSCAASAFIFTPYTKGWYRQAPGKETELVAAITDGSSTYYADSVKRRFTISRDNAQNTVYVQMNSLKPEDTAVYYCNADTLTTTRRFNPYDYRGQGTQVTVSS | low polyreactivity

Row | Sequence | polyreactivity (PSR sort gate)
23 | QVQLVESGAGLVQAGGSLRISCAASGIIFTYYPMGWYRQAPGKERELVASISSSGTSTYYADSVKGRFTISRDNAKNTVYLQLNSLKPEDTAVYYCAKSYWGDNSGFPGTPYDYWGQGTQVTVSS | low polyreactivity
24 | QVQLVESGAGLVQAGGSLRISCAASGRIFHYALGWYRQAPGKERELVAGISKRGGSTYYADSVKGRFTISRDNAKNTVYLQMNSLKPEDTAVYYCAAGRAYDGTKHDYWGQGTQVTVSS | high polyreactivity
25 | QVQLVESGAGLVQAGGSLRISCAASGRTFGLNDMAWYRPAPGKERELVAAITWSDDDTYYADSVKGRFTISRDNAKNTVYLQMNSLKPEDTAVYYCAKSRYDYTKTECGYWGQGTEVTVSS | low polyreactivity
26 | QVQLVESGAGLVQAGGSLRLCCAASGFIFRVYAMGLYRQAPGKERELVAAISDSGGSTTYADSVKGRFTISRDNAKNTVYLQMNSLKPEDTAVYYCAAKLPRSRYRGVDYWGQGTQVTVSS | low polyreactivity
27 | QVQLVESGAGLVQAGGSLRLSCAASGFAFYLYAMGWYRQAPGIERELVAAISSRGGNTYYADTVKGRFTISRDYAKNTVYLPMISLKPEDNAVYYCAAEFWNWYGDYDYWGQGTQVTVSS | high polyreactivity
28 | QVQLVESGAGLVQAGGSLRLSCAASGFIFAGNAMGWYIQAPGKERELVAAITRRGGSTHYADSVKGRFTISRDKAKNTVYLQMNSLKPEDTAVYYCNAAVQPPLSDYWGQGTQVTVSS | low polyreactivity
29 | QVQLVESGAGLVQAGGSLRLSCAASGFTFYRYAMGWYRQAPGKEREFLAAITASGGSTNYADSVKGRFTISRDNAKNTVYLQMNSLKPEDTAVYYCAARQSRDFRYRGFYYWGQGTQVTVSS | high polyreactivity
30 | QVQLVESGAGLVQAGGSLRLSCAASGIILRYYALGWYRQAPGKERELVAAISSGGRTYYADSVKGRFTISRDNAKNPVNLLMNSLTPEDTEVYSCAADDTRGREEYDYWGQGTQVTGSS | high polyreactivity
31 | QVQLVESGAGLVQAGGSLRLSCAASGITFGRYTMGWYRQAPGKERELVAAITNGDITYYADSVKGRFTISRDNAKNTVYLQMNSLKPEDTAVYYCAADRSFWYDYWGQGTQVTVSS | high polyreactivity
32 | QVQLVESGAGLVQAGGSLRLSCAASGNIFVEYAKGWYRQAPGKERELVAAITNTGGRTHYADSVKGRFTISRDNAKNTVYFQMNSLKPEDTAVYDCASRRTGYYGTRDYWGQVTQVTVSS | high polyreactivity
33 | QVQLVESGAGLVQAGGSLRLSCAASGRIFAYNAMGWYRQAPGKERELVAGITIRGGRTYYADSVKGRFTISRYNAKNTVYLQMNSLKPEDTAVYYCNARGWYEYGWGQGTQVTVSS | high polyreactivity
34 | QVQLVESGAGLVQAGGSLRLSCAASGRIFPGYVMGWYRQAHGKERELVAAITRGGSTYYADSVKGRFTISRDNAKNTVYLQMNSLKPDDTAVYYCAAKHSHIHYNYWGQGTQVTVSS | low polyreactivity
35 | QVQLVESGAGLVQAGGSLRLSCAASGRILSHYAMGWYRQAPGKERELVATINSGGSTYYADSVKGRFTISRDNAKNTVYLQMNSLKPEDTAVYYCAVDYAVSYAGWVLRYDYWGQATQVTVSS | low polyreactivity
36 | QVQLVESGAGLVQAGGSLRLSCAASGRNFGTYAMGWYTQAPGTERELVAGINGSGGSTYYADSVKGRFTISRDNAKNTVFLQMNSLKPEDTAVYYCAKYNWYRAWRYGYWGQGTQVTVSS | high polyreactivity
37 | QVQLVESGAGLVQAGGSLRLSCAASGRTFHRYAMGWYRQAPGKERELVATINRNGGSTYYADSVKGRFTISRDNAKNTVYLQMNSLKPDDTAVYYCNKRVYTGYKYSESFDRYYYWGQGTQVTVSS | high polyreactivity
38 | QVQLVESGAGLVQAGGSLRLSCAASGRTFKTYAMAWYRQAPGKERELVAAISRDGRTYYADSVKGRFTISRDNAKNTVYLQMNSLKPEDTAVYYCAKDASVWPWWGYRGDYWGQGTQVTVSS | low polyreactivity
39 | QVQLVESGAGLVQAGGSLRLSCAASGSIFGSYAMGRDRQAPGKERELVAGITYRGSSTYYAESVKGRFTISRDNAKNTVYLQMNSLKPEATAVYYCAADPVFDEYDYWGQGTQVTVSS | low polyreactivity
40 | QVQLVESGAGLVQAGGSLRLSCAASGSIFWAYAMGWYRQAPGKERELVAAISRGGTTTYADSVKGRFTISRDNAKYTVYLQMNSLKPEDTAVYYCARQGTIYSYDIVYPRLDYWGQGTQVTVSS | low polyreactivity
41 | QVQLVESGAGLVQAGGSLRLSCAASGSTFDGNVMGWYRQEPGKESELVAAISGGGSTNYADSVKGRFTISRDNAKNTVYLQMNSLKPEDTAVYYCATQYWHFPYWQYKYDYWGQGTQVTVSS | low polyreactivity
42 | QVQLVESGAGLVQAGGSLRLSCAASGSTFGKYAMGWYTQAPGKEMELVARIDSGDGTYYADSVKGRFTISRDNAKNTVYLQMNSLKPEDTAVYYCAARYGARRLTYFWPQYARYDYWGQGTKVTVSS | high polyreactivity
43 | QVQLVESGAGLVQAGGSLRLSCAASGSTFGSYTMGWYRQAPGKERELVAAINWSGGNTYYADSVKGRFTISRDTAKNTVYLQMNSLKPEDTAVYYCAAAFYIYGVEGDYWGQGTQVTVSS | low polyreactivity
